Test results reported in patent US20250320281A1.

Experiments:
[1] = target: HIV-1 Env of isolate 92UG005 (pseudovirus) (HIV-1); assay: cell-based or functional assay
[2] = target: HIV-1 Env of isolate MGRM-AG-001 (HIV-1); assay: cell-based or functional assay
[3] = target: HIV-1 Env of isolate MGRM-AG-006 (HIV-1); assay: cell-based or functional assay
[4] = target: HIV-1 Env of isolate MGRM-Chronic-B-020 (subtype B pseudovirus) (HIV-1); assay: cell-based or functional assay
[5] = target: HIV-1 Env of isolate MGRM-AG-005 (HIV-1); assay: cell-based or functional assay
[6] = target: HIV-1 Env of isolate MGRM-D-008 (pseudovirus) (HIV-1); assay: cell-based or functional assay
[7] = target: HIV-1 Env of isolate MGRM-AG-003 (HIV-1); assay: cell-based or functional assay
[8] = target: HIV-1 Env of isolate MGRM-AG-013 (HIV-1); assay: cell-based or functional assay
[9] = target: HIV-1 Env of isolate MGRM-Chronic-B-010 (subtype B pseudovirus) (HIV-1); assay: cell-based or functional assay
[10] = target: HIV-1 Env of isolate 93IN905 (subtype C pseudovirus) (HIV-1); assay: cell-based or functional assay
[11] = target: JR-FL gp120 ΔV1/ΔV2 (HIV-1); assay: ELISA, antigen-coated wells
[12] = target: HIV-1 Env of isolate MG RM-D-008 (HIV-1); assay: cell-based or functional assay
[13] = target: HIV-1 Env of isolate 93IN905 (pseudovirus) (HIV-1); assay: cell-based or functional assay
[14] = target: HIV-1 envelope glycoprotein (Env) of isolate 6535.3 (HIV-1); assay: cell-based or functional assay
[15] = target: HIV-1 envelope glycoprotein (Env) of isolate 93TH305 (HIV-1); assay: cell-based or functional assay
[16] = target: HIV-1 envelope glycoprotein (Env) of isolate JR-FL (HIV-1); assay: cell-based or functional assay
[17] = target: HIV-1 envelope glycoprotein (Env) of isolate CAAN.A2 (HIV-1); assay: cell-based or functional assay
[18] = target: HIV-1 Env of isolate 92WR021 (subtype A) (HIV-1); assay: cell-based or functional assay
[19] = target: HIV-1 Env of isolate 92WR026 (subtype A) (HIV-1); assay: cell-based or functional assay
[20] = target: HIV-1 envelope glycoprotein (Env) of isolate MGRM-Chronic-B-004 (HIV-1); assay: cell-based or functional assay
[21] = target: HIV-1 envelope glycoprotein (Env) of isolate MGRM-Chronic-B-002 (HIV-1); assay: cell-based or functional assay
[22] = target: HIV-1 Env of isolate 92UG031 (subtype A) (HIV-1); assay: cell-based or functional assay
[23] = target: HIV-1 envelope glycoprotein (Env) of isolate MGRM-Chronic-B-001 (HIV-1); assay: cell-based or functional assay
[24] = target: HIV-1 Env of isolate 94 KE 105 (subtype AC) (HIV-1); assay: cell-based or functional assay
[25] = target: HIV-1 Env of isolate 92WR020 (subtype A) (HIV-1); assay: cell-based or functional assay
[26] = target: HIV-1 Env of isolate 93UG077 (subtype A) (HIV-1); assay: cell-based or functional assay
[27] = target: HIV-1 Env of isolate 94UG103 (subtype A) (HIV-1); assay: cell-based or functional assay
[28] = target: HIV-1 envelope glycoprotein (Env) of isolate APV_6 (HIV-1); assay: cell-based or functional assay
[29] = target: HIV-1 Env of isolate 92RW008 (subtype A) (HIV-1); assay: cell-based or functional assay
[30] = target: HIV-1 Env of isolate 92WR024 (subtype A) (HIV-1); assay: cell-based or functional assay
[31] = target: HIV-1 Env of isolate 92UG037 (subtype A) (HIV-1); assay: cell-based or functional assay
[32] = target: HIV-1 Env of isolate 92WR009 (subtype A) (HIV-1); assay: cell-based or functional assay
[33] = target: HIV-1 envelope glycoprotein (Env) of isolate MGRM-Chronic-B-003 (HIV-1); assay: cell-based or functional assay
[34] = target: HIV-1 envelope glycoprotein (Env) of isolate MGRM-Chronic-B-008 (HIV-1); assay: cell-based or functional assay
[35] = target: HIV-1 envelope glycoprotein (Env) of isolate APV_13 (HIV-1); assay: cell-based or functional assay
[36] = target: HIV-1 envelope glycoprotein (Env) of isolate APV_17 (HIV-1); assay: cell-based or functional assay

Sequence of 4995_E20 (PGT-142) (antibody) (VH): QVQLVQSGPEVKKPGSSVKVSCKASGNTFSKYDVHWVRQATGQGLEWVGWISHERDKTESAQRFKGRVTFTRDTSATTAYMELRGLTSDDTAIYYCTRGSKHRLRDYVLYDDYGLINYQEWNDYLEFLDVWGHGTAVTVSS
Sequence of 4995_E20 (PGT-142) (antibody) (VL): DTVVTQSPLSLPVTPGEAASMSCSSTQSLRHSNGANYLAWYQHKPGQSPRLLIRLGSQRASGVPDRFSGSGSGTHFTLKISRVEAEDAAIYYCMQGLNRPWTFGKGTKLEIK
Sequence of 5345_I01 (PGT-137) (antibody) (VH): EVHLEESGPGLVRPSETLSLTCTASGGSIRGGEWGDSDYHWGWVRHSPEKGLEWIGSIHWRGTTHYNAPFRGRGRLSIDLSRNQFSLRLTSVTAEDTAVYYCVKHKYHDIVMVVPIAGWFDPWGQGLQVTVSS
Sequence of 5345_I01 (PGT-137) (antibody) (VL): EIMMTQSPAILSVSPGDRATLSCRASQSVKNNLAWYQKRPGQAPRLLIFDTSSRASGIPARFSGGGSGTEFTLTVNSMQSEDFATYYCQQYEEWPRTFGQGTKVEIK
Sequence of 5329_C19 (PGT-136) (antibody) (VH): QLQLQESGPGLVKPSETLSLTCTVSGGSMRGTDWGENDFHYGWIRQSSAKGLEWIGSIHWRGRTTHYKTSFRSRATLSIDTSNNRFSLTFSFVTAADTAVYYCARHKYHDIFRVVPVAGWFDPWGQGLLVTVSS
Sequence of 5329_C19 (PGT-136) (antibody) (VL): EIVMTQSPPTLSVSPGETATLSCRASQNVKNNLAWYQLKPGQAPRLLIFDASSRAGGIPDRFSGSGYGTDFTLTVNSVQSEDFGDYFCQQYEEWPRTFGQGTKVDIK

With 4858_P08 (PGT-123) (antibody) the IC50, pseudovirus neutralization [1] was 9.79 µg/mL, the IC50 [2] was 2.51 µg/mL and the IC50 [3] was 0.014 µg/mL. The IC50 (µg/mL), pseudovirus neutralization [4] was 0.005 µg/mL, the IC50 [5] was 0.149 µg/mL and the IC50, pseudovirus neutralization [6] was over 50 µg/mL. It also gave an IC50 [7] of over 50 µg/mL, an IC50 [8] of 3.37 µg/mL and an IC50 (µg/mL), pseudovirus neutralization [9] of 0.009 µg/mL. The IC50 (µg/mL), pseudovirus neutralization [10] was 0.004 µg/mL and the EC50 [11] was 0.3 µg/mL.
Work on 4877_D15 (PGT-122) (antibody) yielded an IC50, pseudovirus neutralization [1] of over 50 µg/mL, an IC50 [2] of 14.5 µg/mL and an IC50 [3] of 0.028 µg/mL. The IC50 (µg/mL), pseudovirus neutralization [4] was 0.005 µg/mL, the IC50 [5] was 33.9 µg/mL and the IC50, pseudovirus neutralization [6] was over 50 µg/mL. For the same substance, the IC50 [7] was 43.7 µg/mL, the IC50 [8] was 0.521 µg/mL and the IC50 (µg/mL), pseudovirus neutralization [9] was 0.018 µg/mL. It also gave an IC50 (µg/mL), pseudovirus neutralization [10] of 0.013 µg/mL and an EC50 [11] of 0.3 µg/mL.
With 5145_B14 (PGT-127) (antibody) the IC50, pseudovirus neutralization [1] was 1.11 µg/mL, the IC50 [2] was over 50 µg/mL and the IC50 [3] was 0.021 µg/mL. It also gave an IC50 (µg/mL), pseudovirus neutralization [4] of 0.05 µg/mL, an IC50 [5] of over 50 µg/mL and an IC50, pseudovirus neutralization [6] of over 50 µg/mL. It also gave an IC50 [7] of over 50 µg/mL, an IC50 [8] of 0.018 µg/mL and an IC50 (µg/mL), pseudovirus neutralization [9] of 0.019 µg/mL. For the same substance, the IC50 (µg/mL), pseudovirus neutralization [10] was 0.024 µg/mL and the EC50 [11] was 0.7 µg/mL.
Work on 5123_A06 (PGT-125) (antibody) yielded an IC50, pseudovirus neutralization [1] of over 50 µg/mL, an IC50 [2] of over 50 µg/mL and an IC50 [3] of 0.008 µg/mL. The IC50 (µg/mL), pseudovirus neutralization [4] was 0.087 µg/mL, the IC50 [5] was over 50 µg/mL and the IC50, pseudovirus neutralization [6] was over 50 µg/mL. It also gave an IC50 [7] of over 50 µg/mL, an IC50 [8] of 0.004 µg/mL and an IC50 (µg/mL), pseudovirus neutralization [9] of 0.006 µg/mL. It also gave an IC50 (µg/mL), pseudovirus neutralization [10] of 0.009 µg/mL and an EC50 [11] of 0.6 µg/mL.
5343_B08 (PGT-135) (antibody) showed an IC50 (µg/mL), pseudovirus neutralization [12] of over 50 µg/mL, a Primary Neutralization Index (B cell culture supernatant) [13] of 43 and an EC50 [11] of 0.1 µg/mL.
In the case of 5345_I01 (PGT-137) (antibody), the IC50 (µg/mL), pseudovirus neutralization [12] is reported as over 50 µg/mL, the Primary Neutralization Index (B cell culture supernatant) [13] is reported as 3.3 and the EC50 [11] is reported as 0.2 µg/mL.
5141_B17 (PGT-126) (antibody) showed an IC50, pseudovirus neutralization [1] of 0.037 µg/mL, an IC50 [2] of over 50 µg/mL and an IC50 [3] of 0.01 µg/mL. It also gave an IC50 (µg/mL), pseudovirus neutralization [4] of 0.021 µg/mL, an IC50 [5] of 1.21 µg/mL and an IC50, pseudovirus neutralization [6] of 43.1 µg/mL. For the same substance, the IC50 [7] was over 50 µg/mL, the IC50 [8] was 0.008 µg/mL and the IC50 (µg/mL), pseudovirus neutralization [9] was 0.005 µg/mL. The IC50 (µg/mL), pseudovirus neutralization [10] was 0.015 µg/mL and the EC50 [11] was 0.3 µg/mL.
5329_C19 (PGT-136) (antibody) was tested, and the IC50 (µg/mL), pseudovirus neutralization [12] was over 50 µg/mL, the Primary Neutralization Index (B cell culture supernatant) [13] was 5.6 and the EC50 [11] was 0.3 µg/mL.
4995_E20 (PGT-142) (antibody) gave an IC50 (µg/mL), pseudovirus neutralization [14] of over 50 µg/mL, an IC50 (µg/mL), pseudovirus neutralization [15] of 5.86 µg/mL and an IC50 (µg/mL), pseudovirus neutralization [16] of over 50 µg/mL. For the same substance, the IC50 (µg/mL), pseudovirus neutralization [17] was over 50 µg/mL, the IC50 (µg/mL), pseudovirus neutralization [18] was over 50 µg/mL and the IC50 (µg/mL), pseudovirus neutralization [19] was 1.78 µg/mL. The IC50 (µg/mL), pseudovirus neutralization [20] was 0.172 µg/mL, the IC50 (µg/mL), pseudovirus neutralization [21] was over 50 µg/mL and the IC50 (µg/mL), pseudovirus neutralization [22] was 0.05 µg/mL. The IC50 (µg/mL), pseudovirus neutralization [23] was over 50 µg/mL, the IC50 (µg/mL), pseudovirus neutralization [24] was 0.19 µg/mL and the IC50 (µg/mL), pseudovirus neutralization [25] was 31.5 µg/mL. It also gave an IC50 (µg/mL), pseudovirus neutralization [26] of over 50 µg/mL, an IC50 (µg/mL), pseudovirus neutralization [27] of over 50 µg/mL and an IC50 (µg/mL), pseudovirus neutralization [28] of 4.72 µg/mL. The IC50 (µg/mL), pseudovirus neutralization [29] was 0.447 µg/mL, the IC50 (µg/mL), pseudovirus neutralization [30] was 0.069 µg/mL and the IC50 (µg/mL), pseudovirus neutralization [31] was 0.557 µg/mL. The IC50 (µg/mL), pseudovirus neutralization [32] was 0.006 µg/mL, the IC50 (µg/mL), pseudovirus neutralization [33] was 0.484 µg/mL and the IC50 (µg/mL), pseudovirus neutralization [34] was over 50 µg/mL. It also gave an IC50 (µg/mL), pseudovirus neutralization [35] of over 50 µg/mL and an IC50 (µg/mL), pseudovirus neutralization [36] of 0.628 µg/mL.
